Patent publication US20240343803A1

Molecular target: cynomolgus monkey PVRIG on FlpinCHO-cyno PVRIG cells (cynomolgus monkey)
Assay: FACS, FlpinCHO-cyno PVRIG cells

Chain of cynomolgus monkey PVRIG on FlpinCHO-cyno PVRIG cells (cynomolgus monkey) (chain, as listed by the source): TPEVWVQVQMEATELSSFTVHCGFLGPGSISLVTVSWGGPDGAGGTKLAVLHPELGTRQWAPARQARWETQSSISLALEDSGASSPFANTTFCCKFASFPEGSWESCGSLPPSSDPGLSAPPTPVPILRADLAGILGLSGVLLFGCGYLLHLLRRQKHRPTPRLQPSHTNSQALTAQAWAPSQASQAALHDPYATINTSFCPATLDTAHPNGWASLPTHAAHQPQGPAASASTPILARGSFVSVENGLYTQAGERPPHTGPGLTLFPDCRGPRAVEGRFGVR

- AUC % to COM701-hIgG1: 3.27%
- AUC % to SRF813-hIgG1: 4.05%
- AUC % to parental Ab: 3.74%
B1: PVRIG-A105-H3a (Fc fusion, not shown: a dimerising Fc or GST)
chain: EVQLVESGGGLVQPGGSLRLSCAASGRTFDRHTMTWFRQAPGKEREFVATASRIPGDTYYVDSVKGRFTISRDNAKNSVYLQMNSLRAEDTAVYYCAATSAYSSEVDSYEKGSWYDNWGQGTMVTVSS
